Test results from paper PMC9652331, “Cryo-EM structures of human m^6A writer complexes” (Cell Research, 2022).

Target: the molecule itself
Assay: cross-linking; BS3 XL-MS of purified MACOM (Fig. S4a, b): 0.5 mM BS3, 50 mM HEPES pH 7.5, 100 mM KCl, 5% glycerol, 25 °C, 2 h; pLink2

B1: Wilms' tumor 1-associated protein (WTAP), full length, N-6× His-WTAP (natural protein, human, UniProt Q15007 1-396, looked up)
chain: MTNEEPLPKKVRLSETDFKVMARDELILRWKQYEAYVQALEGKYTDLNSNDVTGLRESEEKLKQQQQESARRENILVMRLATKEQEMQECTTQIQYLKQVQQPSVAQLRSTMVDPAINLFFLKMKGELEQTKDKLEQAQNELSAWKFTPDSQTGKKLMAKCRMLIQENQELGRQLSQGRIAQLEAELALQKKYSEELKSSQDELNDFIIQLDEEVEGMQSTILVLQQQLKETRQQLAQYQQQQSQASAPSTSRTTASEPVEQSEATSKDCSRLTNGPSNGSSSRQRTSGSGFHREGNTTEDDFPSSPGNGNKSSNSSEERTGRGGSGYVNQLSAGYESVDSPTGSENSLTHQSNDTDSSHDPQEEKAVSGKGNRTVGSRHVQNGLDSSVNVQGSVL
notes: Wilms' tumor 1-associated protein (WTAP), human, full length; Stands as a homodimer in the MACOM complexes (two copies, WTAP-a and WTAP-b); No removal of the His tag is described; also called WTAP-a; WTAP-b; source: High Five insect cells, co-expressed with the other MACOM components, purified as a complex (Ni-NTA, STREP beads, SEC); not shown: 6× His, N-terminal, kept
  binding result: binds
